Laboratory results reported in article PMC6539025, “P-element Somatic Inhibitor Protein Binding a Target Sequence in dsx Pre-mRNA Conserved in Bombyx mori and Spodoptera litura”.

What was measured:
[1] = molecular target: MBP-BmPSI (Bombyx mori, UniProt A8R081 1-703); assay: ITC; 25 C; n = 1.02; RNA dissolved in protein purification buffer, 20 mM Tris, 20 mM NaCl (pH not given); ITC at 25 C; EMSA buffer not given; details: protein: recombinant; tags: N-terminal His6-MBP-TEV
[2] = molecular target: SlPSI L127G (Spodoptera litura, UniProt A0A9J7DW37 1-732, L127G); assay: competition; unlabeled CE1 against biotin-CE1; RNA dissolved in protein purification buffer, 20 mM Tris, 20 mM NaCl (pH not given); ITC at 25 C; EMSA buffer not given; details: protein: recombinant; tags: N-terminal His6-MBP-TEV
Sequence of SlPSI L127G (A0A9J7DW37 entry or part of it L127G | L127G L127G): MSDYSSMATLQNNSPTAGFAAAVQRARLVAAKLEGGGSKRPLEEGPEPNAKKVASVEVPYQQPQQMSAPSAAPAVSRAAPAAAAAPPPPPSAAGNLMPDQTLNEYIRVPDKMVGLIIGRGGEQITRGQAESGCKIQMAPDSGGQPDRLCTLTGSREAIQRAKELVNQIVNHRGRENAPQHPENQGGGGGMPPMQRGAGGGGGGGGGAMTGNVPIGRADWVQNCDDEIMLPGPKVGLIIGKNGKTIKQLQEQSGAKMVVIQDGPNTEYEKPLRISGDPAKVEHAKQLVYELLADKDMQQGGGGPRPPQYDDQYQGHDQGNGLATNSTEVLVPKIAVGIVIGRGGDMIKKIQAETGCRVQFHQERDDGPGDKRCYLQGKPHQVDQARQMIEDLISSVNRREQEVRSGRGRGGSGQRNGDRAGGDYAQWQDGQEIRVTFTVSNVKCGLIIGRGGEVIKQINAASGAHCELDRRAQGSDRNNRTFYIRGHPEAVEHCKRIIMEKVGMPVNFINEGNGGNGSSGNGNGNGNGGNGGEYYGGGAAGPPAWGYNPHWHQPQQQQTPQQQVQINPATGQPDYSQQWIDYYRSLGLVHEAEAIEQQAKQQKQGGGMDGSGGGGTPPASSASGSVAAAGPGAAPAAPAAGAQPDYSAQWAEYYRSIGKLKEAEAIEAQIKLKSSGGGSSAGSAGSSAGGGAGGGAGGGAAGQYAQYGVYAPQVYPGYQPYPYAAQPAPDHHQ

Sequence of MBP-BmPSI (A8R081 entry or part of it): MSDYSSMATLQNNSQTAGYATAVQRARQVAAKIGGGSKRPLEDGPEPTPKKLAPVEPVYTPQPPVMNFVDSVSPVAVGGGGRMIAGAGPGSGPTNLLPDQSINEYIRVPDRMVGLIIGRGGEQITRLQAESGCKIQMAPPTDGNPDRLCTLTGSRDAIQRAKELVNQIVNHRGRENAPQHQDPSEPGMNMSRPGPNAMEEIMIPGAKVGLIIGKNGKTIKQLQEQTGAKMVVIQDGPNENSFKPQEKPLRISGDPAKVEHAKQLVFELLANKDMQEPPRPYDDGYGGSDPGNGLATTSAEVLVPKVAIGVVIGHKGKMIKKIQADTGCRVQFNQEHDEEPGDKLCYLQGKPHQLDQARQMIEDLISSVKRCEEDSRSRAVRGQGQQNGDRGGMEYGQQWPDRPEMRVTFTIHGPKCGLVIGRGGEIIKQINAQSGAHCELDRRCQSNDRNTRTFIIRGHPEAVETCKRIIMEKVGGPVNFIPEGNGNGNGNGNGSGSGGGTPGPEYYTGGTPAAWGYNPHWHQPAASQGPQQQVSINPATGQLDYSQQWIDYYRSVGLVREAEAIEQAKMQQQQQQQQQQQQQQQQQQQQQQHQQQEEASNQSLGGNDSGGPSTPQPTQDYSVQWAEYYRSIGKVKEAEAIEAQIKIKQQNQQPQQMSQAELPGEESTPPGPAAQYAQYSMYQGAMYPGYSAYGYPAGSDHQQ

## UUAAUAAUAUAAGUGGUGUA (ssRNA) [CE1 RNA, unlabeled]
[1]
  Ka: 1.74e+07 M⁻¹
[2]
  binding result: binds
